Test results: patent US20140348865A1, “[…] ON AN HIV-1 V1V2 SITE-OF-VULNERABILITY” (The United States of America, as represented by the …, priority 2011, published 2014)

Assays:
epitope-scaffold 2ZJR_B = assay: ELISA, antibody dilution series on the scaffold
[1] = molecular target: linked dimers of the gp120 V1/V2 domain; assay: gel filtration shift
[2] = molecular target: Env of HIV-1 strain 7165.18 (pseudovirus) (HIV-1)
[3] = molecular target: Env of HIV-1 strain T251-18 (pseudovirus) (HIV-1)
[4] = molecular target: Env of HIV-1 strain JRFL (pseudovirus) (HIV-1)
[5] = molecular target: Env of HIV-1 strain QH0515 (pseudovirus) (HIV-1)
[6] = molecular target: Env of HIV-1 strain BG 1168 (pseudovirus) (HIV-1)
[7] = molecular target: Env of HIV-1 strain RHPA (pseudovirus) (HIV-1)
[8] = molecular target: Env of HIV-1 strain CNE4 (pseudovirus) (HIV-1)
[9] = molecular target: 1FD6 ZM109 scaffold N189D; assay: ELISA
[10] = molecular target: 1FD6 ZM109 scaffold N160Q; assay: ELISA
[11] = molecular target: 1FD6 ZM109 scaffold N130D; assay: ELISA
[12] = molecular target: 1FD6 ZM109 scaffold N192D; assay: ELISA
[13] = molecular target: 1FD6 ZM109 scaffold N173D; assay: ELISA
1FD6-ZM109 V1V2 scaffold = assay: ELISA
[14] = molecular target: 1FD6 ZM109 scaffold N138D; assay: ELISA
[15] = molecular target: 1FD6 CAP45 scaffold N143D/N147D/N192D; assay: ELISA on His-captured supernatant
[16] = molecular target: 1FD6 CAP45 scaffold N192D; assay: ELISA, supernatant on His grab plates
[17] = molecular target: 1FD6 CAP45 scaffold N143D; assay: ELISA, supernatant on His grab plates
1FD6-CAP45 V1V2 scaffold = assay: ELISA, supernatant on His grab plates
[18] = molecular target: 1FD6 CAP45 scaffold N160Q; assay: ELISA, supernatant on His grab plates

Question: What does the source list for monoclonal antibody PG9?
Answer: EC50 (read off the curve) (epitope-scaffold 2ZJR_B): 0.1 µg/mL; percent active for PG9 binding [1]: 100%; neutralization IC80 (TRJO.58 (HIV-1)): 3.22 µg/mL; neutralization IC80 (T255-34 (HIV-1)): 0.114 µg/mL; neutralization IC80 (CH038.12 (HIV-1)): > 50 µg/mL; neutralization IC80 [2]: > 50 µg/mL; neutralization IC80 (YU2.DG (HIV-1)): > 50 µg/mL; neutralization IC80 [3]: > 50 µg/mL; neutralization IC80 (REJO.67 (HIV-1)): 0.08 µg/mL; neutralization IC80 (SF162.LS (HIV-1)): > 50 µg/mL; neutralization IC80 [4]: > 50 µg/mL; neutralization IC80 (SC422.8 (HIV-1)): 38.6 µg/mL; neutralization IC80 (CH070.1 (HIV-1)): 0.024 µg/mL; neutralization IC80 (ADA.DG (HIV-1)): > 50 µg/mL; neutralization IC80 (BR07.DG (HIV-1)): > 50 µg/mL; neutralization IC80 (DJ263.8 (HIV-1)): 0.733 µg/mL; neutralization IC80 (T33-7 (HIV-1)): 0.087 µg/mL; neutralization IC80 (PVO.04 (HIV-1)): 37.1 µg/mL; neutralization IC80 (SS1196.01 (HIV-1)): 3.08 µg/mL; neutralization IC80 (CAAN.A2 (HIV-1)): > 50 µg/mL; neutralization IC80 [5]: > 50 µg/mL; neutralization IC80 (T257-31 (HIV-1)): 0.075 µg/mL; neutralization IC80 [6]: > 50 µg/mL; neutralization IC80 (T266-60 (HIV-1)): > 50 µg/mL; neutralization IC80 (HXB2.DG (HIV-1)): 10.2 µg/mL; neutralization IC80 (T278-50 (HIV-1)): 6.06 µg/mL; neutralization IC80 (JRCSF.JB (HIV-1)): 0.009 µg/mL; neutralization IC80 [7]: > 50 µg/mL; neutralization IC80 [8]: > 50 µg/mL; neutralization IC80 (MN.3 (HIV-1)): > 50 µg/mL; neutralization IC80 (QH0692.42 (HIV-1)): > 50 µg/mL; neutralization IC80 (CNE14 (HIV-1)): > 50 µg/mL; neutralization IC80 (CNE57 (HIV-1)): > 50 µg/mL; neutralization IC80 (T280-5 (HIV-1)): 1.94 µg/mL; neutralization IC80 (T250-4 (HIV-1)): 1 ng/mL; neutralization IC80 (AC10.29 (HIV-1)): 0.306 µg/mL; neutralization IC80 (HT593.1 (HIV-1)): 5.41 µg/mL; neutralization IC80 (HO86.8 (HIV-1)): 0.125 µg/mL; neutralization IC80 (TRO.11 (HIV-1)): > 50 µg/mL; neutralization IC80 (THRO.18 (HIV-1)): > 50 µg/mL; neutralization IC80 (Bal.01 (HIV-1)): 1.52 µg/mL; neutralization IC80 (CNE10 (HIV-1)): 1.61 µg/mL; neutralization IC80 (BX08_16 (HIV-1)): 0.273 µg/mL; neutralization IC80 (BL01.DG (HIV-1)): > 50 µg/mL; neutralization IC80 (BaL.26 (HIV-1)): 0.365 µg/mL; neutralization IC80 (89.6.DG (HIV-1)): > 50 µg/mL; neutralization IC80 (T253-11 (HIV-1)): 1.72 µg/mL; neutralization IC80 (CNE12 (HIV-1)): > 50 µg/mL; neutralization IC80 (WITO.33 (HIV-1)): 0.03 µg/mL; EC50 [9]: 0.1 µg/mL; EC50 [10]: > 50 µg/mL; EC50 [11]: 0.4 µg/mL; EC50 [12]: 0.1 µg/mL; EC50 [13]: 7 µg/mL; EC50 (1FD6-ZM109 V1V2 scaffold): 0.1 µg/mL; EC50 [14]: 0.2 µg/mL; EC50 [15]: 0.1 µg/mL; EC50 [16]: 0.2 µg/mL; EC50 [17]: 0.1 µg/mL; EC50 (1FD6-CAP45 V1V2 scaffold): 0.2 µg/mL; EC50 [18]: > 50 µg/mL

Question: What does the source list for monoclonal antibody PG16?
Answer: EC50 (read off the curve) (epitope-scaffold 2ZJR_B): 1 µg/mL; neutralization IC80 (TRJO.58 (HIV-1)): 13.9 µg/mL; neutralization IC80 (T255-34 (HIV-1)): 0.079 µg/mL; neutralization IC80 (CH038.12 (HIV-1)): > 50 µg/mL; neutralization IC80 [2]: > 50 µg/mL; neutralization IC80 (YU2.DG (HIV-1)): > 50 µg/mL; neutralization IC80 [3]: > 50 µg/mL; neutralization IC80 (REJO.67 (HIV-1)): 0.4 µg/mL; neutralization IC80 (SF162.LS (HIV-1)): > 50 µg/mL; neutralization IC80 [4]: > 50 µg/mL; neutralization IC80 (SC422.8 (HIV-1)): > 50 µg/mL; neutralization IC80 (CH070.1 (HIV-1)): 0.013 µg/mL; neutralization IC80 (ADA.DG (HIV-1)): 0.458 µg/mL; neutralization IC80 (BR07.DG (HIV-1)): > 50 µg/mL; neutralization IC80 (DJ263.8 (HIV-1)): 1.11 µg/mL; neutralization IC80 (T33-7 (HIV-1)): 0.279 µg/mL; neutralization IC80 (PVO.04 (HIV-1)): > 50 µg/mL; neutralization IC80 (SS1196.01 (HIV-1)): 2.9 µg/mL; neutralization IC80 (CAAN.A2 (HIV-1)): > 50 µg/mL; neutralization IC80 [5]: > 50 µg/mL; neutralization IC80 (T257-31 (HIV-1)): 0.021 µg/mL; neutralization IC80 [6]: > 50 µg/mL; neutralization IC80 (T266-60 (HIV-1)): > 50 µg/mL; neutralization IC80 (HXB2.DG (HIV-1)): > 50 µg/mL; neutralization IC80 (T278-50 (HIV-1)): > 50 µg/mL; neutralization IC80 (JRCSF.JB (HIV-1)): 0.015 µg/mL; neutralization IC80 [7]: > 50 µg/mL; neutralization IC80 [8]: > 50 µg/mL; neutralization IC80 (MN.3 (HIV-1)): > 50 µg/mL; neutralization IC80 (QH0692.42 (HIV-1)): > 50 µg/mL; neutralization IC80 (CNE14 (HIV-1)): > 50 µg/mL; neutralization IC80 (CNE57 (HIV-1)): > 50 µg/mL; neutralization IC80 (T280-5 (HIV-1)): 4.53 µg/mL; neutralization IC80 (T250-4 (HIV-1)): 1 ng/mL; neutralization IC80 (AC10.29 (HIV-1)): 0.088 µg/mL; neutralization IC80 (HT593.1 (HIV-1)): 13.7 µg/mL; neutralization IC80 (HO86.8 (HIV-1)): 0.02 µg/mL; neutralization IC80 (TRO.11 (HIV-1)): > 50 µg/mL; neutralization IC80 (THRO.18 (HIV-1)): > 50 µg/mL; neutralization IC80 (Bal.01 (HIV-1)): > 50 µg/mL; neutralization IC80 (CNE10 (HIV-1)): > 50 µg/mL; neutralization IC80 (BX08_16 (HIV-1)): 38.8 µg/mL; neutralization IC80 (BL01.DG (HIV-1)): > 50 µg/mL; neutralization IC80 (BaL.26 (HIV-1)): > 50 µg/mL; neutralization IC80 (89.6.DG (HIV-1)): > 50 µg/mL; neutralization IC80 (T253-11 (HIV-1)): > 50 µg/mL; neutralization IC80 (CNE12 (HIV-1)): > 50 µg/mL; neutralization IC80 (WITO.33 (HIV-1)): < 0.023 µg/mL; EC50 [9]: 4 µg/mL; EC50 [10]: > 50 µg/mL; EC50 [11]: 1.5 µg/mL; EC50 [12]: 2.5 µg/mL; EC50 [13]: > 50 µg/mL; EC50 (1FD6-ZM109 V1V2 scaffold): 3.4 µg/mL; EC50 [14]: 4.4 µg/mL; EC50 [15]: 15.1 µg/mL; EC50 [16]: 27 µg/mL; EC50 [17]: 3.3 µg/mL; EC50 (1FD6-CAP45 V1V2 scaffold): 9.1 µg/mL; EC50 [18]: > 50 µg/mL
